Assay results taken from PMC9449809 (Frontiers in Immunology, 2022).

B1: monoclonal antibody REGN10933 (casirivimab) (antibody, V domains shown)
VH: QVQLVESGGGLVKPGGSLRLSCAASGFTFSDYYMSWIRQAPGKGLEWVSYITYSGSTIYYADSVKGRFTISRDNAKSSLYLQMNSLRAEDTAVYYCARDRGTTMVPFDYWGQGTLVTVSS
VL: DIQMTQSPSSLSASVGDRVTITCQASQDITNYLNWYQQKPGKAPKLLIYAASNLETGVPSRFSGSGSGTDFTFTISGLQPEDIATYYCQQYDNLPLTFGGGTKVEIK
B2: monoclonal antibody REGN10987 (imdevimab) (antibody, V domains shown)
VH: QVQLVESGGGVVQPGRSLRLSCAASGFTFSNYAMYWVRQAPGKGLEWVAVISYDGSNKYYADSVKGRFTISRDNSKNTLYLQMNSLRTEDTAVYYCASGSDYGDYLLVYWGQGTLVTVSS
VL: QSALTQPASVSGSPGQSITISCTGTSSDVGGYNYVSWYQQHPGKAPKLMIYDVSKRPSGVSNRFSGSKSGNTASLTISGLQSEDEADYYCNSLTSISTWVFGGGTKLTVL

Target: SARS-CoV-2 spike protein receptor-binding domain, Wuhan-Hu-1 sequence (SARS-CoV-2, UniProt P0DTC2)
Assay: ELISA
Details: both partners purified

Binder	binding result
B1	binds
B2	binds
